What was measured:
[1] = biological target: T1, Human PD-1 protein with histidine and avi tags (ACRO Biosystems, PD1-H82E4) (human, UniProt Q15116 25-167); assay: BLI (Octet Red96e), PD-1 captured on SA sensor, 1:1 local fit
T1 construct: Captured on streptavidin (SA) sensors in the BLI assay; not shown: histidine and avi tags
Experimental: Human PD-1 proteins with histidine and avi tags were purchased from the manufacturer ACRO Biosystems (Cat#: PD1-H82E4), and the assay buffer was 1× kinetics buffer (diluted from 10× kinetics buffer (ForteBio, Cat#: 18-1105)) for kinetic assay and dilution of antigens and antibodies. The binding kinetics between the antigen and the antibody was analyzed by the biolayer interferometry (BLI) technique using an Octet molecular interaction analyzer (ForteBio, model: Octet Red96e).
When the binding kinetics between the antigen and the antibody was determined, the rotation speed of the sensor was set at 1000 rpm/min. The eight SA sensors placed in a column were first equilibrated in an assay buffer for 10 min and then used to capture PD-1 at a capture height of 0.5 nm. Thereafter, the SA sensors were equilibrated in the assay buffer for 100 s, and then were associated with each antibody diluted to a single concentration and with a row of blank buffer wells for 180 s, followed by dissociation for 600 s. A new column of SA sensors were used in each cycle.
When data analysis was performed using Octet Data Analysis software (Fortebio, version 11.0), the reference signals were subtracted by a single reference mode (reference well), the data were fitted by a “1:1 Local fitting” method, and the kinetic parameters of the binding of the antigen to the antibody were calculated to obtain kon (1/Ms) values, kdis (1/s) values and KD (M) values.

[2] = biological target: T2, Human PD-1 expressed on CHO-K1 cells (CHO-K1/hPD-1) (human, UniProt Q15116 25-288); assay: FACS, CHO-K1-hPD-1 cells
T2 construct: whole, on cells; also called CHO-K1 cells overexpressing human PD-1
Experimental: In order to investigate the binding activity of the CD73×PD-1 bispecific antibody to human CD73 and PD-1, the binding assay at the cellular level was performed using a CHO-K1 cell strain overexpressing human CD73 or PD-1 (CHO-K1-hCD73 or CHO-K1-hPD-1). Briefly, the CHO-K1-hCD73 and CHO-K1-hPD-1 cells were digested and resuspended in an F-12K complete medium, and the cell density was adjusted to 1×10⁶ cells/mL. The cells were seeded in a 96-well V-bottom plate (Corning, #3894) at 100 μL/well, followed by the addition at 100 μL/well and centrifugation at 500 g at 4° C. for 5 min, and then the supernatant was discarded. Antibodies were 3-fold diluted to a maximum final concentration of 50 nM, and a total of 8 concentrations were set. 100 μL of the diluted antibodies was added to each well, and the cells were incubated at 4° C. for 1 h away from light. Thereafter, the cells in each well were rinsed twice with 100 μL of pre-cooled PBS, and centrifuged at 500 g at 4° C. for 5 min, and then the supernatant was discarded. Then 100 μL of a fluorescent secondary antibody (goat anti-human IgG (H+L) secondary antibody, Alexa Fluor® 488 conjugate, Invitrogen, Cat #A11013, 1:1000) was added to each well. […] Finally, the cells in each well were resuspended in 200 μL of pre-cooled PBS, and the fluorescence signal values were read using a BD FACS CANTOII.

[3] = biological target: T2, Human PD-1 expressed on CHO-K1 cells …; assay: FACS, CHO-K1/hPD-1 cells
[4] = biological target: T2, Human PD-1 expressed on CHO-K1 cells …; assay: FACS blocking of biotin-labeled human PD-L1 binding to CHO-K1-hPD-1 cells

T1 sequence (Q15116 25-167 limits assumed): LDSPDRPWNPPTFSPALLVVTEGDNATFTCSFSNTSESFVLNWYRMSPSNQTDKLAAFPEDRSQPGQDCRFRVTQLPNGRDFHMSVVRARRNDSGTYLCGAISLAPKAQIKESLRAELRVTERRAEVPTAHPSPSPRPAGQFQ
T2 sequence (Q15116 25-288): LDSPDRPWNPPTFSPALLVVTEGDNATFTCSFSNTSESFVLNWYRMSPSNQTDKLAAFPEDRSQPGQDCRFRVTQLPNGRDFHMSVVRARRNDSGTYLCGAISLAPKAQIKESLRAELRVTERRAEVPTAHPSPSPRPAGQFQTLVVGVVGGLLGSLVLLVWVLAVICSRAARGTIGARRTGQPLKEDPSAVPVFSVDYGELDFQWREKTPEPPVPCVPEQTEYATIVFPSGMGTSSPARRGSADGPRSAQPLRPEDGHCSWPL

Kd [1]: 77 nM
koff [1]: 0.000768 s⁻¹
kon [1]: 9970 M⁻¹ s⁻¹
EC50 [2]: 1.24 nM
EC50 [3]: 8.18 nM
Maximum (MFI) [3]: 2.75e+06
IC50 [4]: 8.86 nM
Maximum inhibition rate (%) [4]: 103%
B1: PR002481 (antibody, human IgG1, V domains shown)
VH: EVQLVETGGGLIQPGGSLRLSCAASGFNVSSHYMSWVRQAPGKGREWVSIIDGGGSTYYADSVKGRFTISRDNSKNRLYLQMNSLRAEDTAMYYCARATAVAEKNGYNYPFNYWGQGTLVTVSS
notes: Heavy-chain-only antibody (HCAb), human IgG1 Fc; two heavy chains, no light chain; also called R4004P556D1; anti-PD1 R4004P556D1 HCAb hG1

Source: patent US20240034792A1 (HARBOUR BIOMED SHANGHAI, published 2024)
